From PMC10447908, “Customizably designed multibodies neutralize SARS-CoV-2 in a variant-insensitive manner” (Frontiers in Immunology, 2023) come the findings set out here.

The target in the experiment is T1, SARS-CoV-2 Spike receptor binding domain, Wuhan (ancestral) variant (SARS-CoV-2, UniProt P0DTC2, biotinylated in vitro when needed).
T1 construct: also called Wuhan RBD; soluble (monomeric) RBD
Put plainly: flow cytometry on cells; cell-surface binding inhibition: 36 nM RBD preincubated with 1 to 1088 nM of the molecule for 1 h at 37°C in PBS, 1% BSA, 2 mM EDTA, then 1x10^5 HEK-293T-hACE2 cells for 1 h on ice; RBD on cells revealed with Strep-Tactin-Dye649; blocker and RBD meet in solution. To be noted: both partners purified. In general terms: A flow cytometer gives signals particle by particle.

B1: Binder C (VHH)
VHH: QVQLVESGGGLVQPGGSLRLSCAASGITLDYYAIGWFRQAPGKEREGVSRIRSSDGSTNYADSVKGRFTMSRDNAKNTVYLQMNSLKPEDTAVYYCAYGPLTKYGSSWYWPYEYDYWGQGTQVTVSS
notes: not shown: His6, N-terminal, cleaved; SUMO, N-terminal, cleaved
Take B1: the binding result is recorded as “binds”.
